From patent US20200377555A1

What was measured:
Conditions in all cases: remark: other sources report otherwise
[1] = molecular target: UFV180499 H5 A/Hong Kong/156/97 (influenza A H5 A/Hong Kong/156/97)
[2] = molecular target: T1, UFV5367 (influenza A H1N1 A/Brisbane/59/07), A8C8J4
[3] = molecular target: T1, UFV5367 (influenza A H1N1 …); assay: ELISA, polypeptide coated, antibody titrated; average of 3 independent assays
[4] = molecular target: Full length HA H1N1 A/Brisbane/59/07 (influenza A H1N1 A/Brisbane/59/07), B4URD6
[5] = molecular target: T1, UFV5367 (influenza A H1N1 …); remark: listed apart in the source

B1: CR9114 (antibody, V domains shown)
VH: QVQLVQSGAEVKKPGSSVKVSCKSSGGTSNNYAISWVRQAPGQGLDWMGGISPIFGSTAYAQKFQGRVTISADIFSNTAYMELNSLTSEDTAVYFCARHGNYYYYSGMDVWGQGTTVTVSS
VL: SYVLTQPPAVSGTPGQRVTISCSGSDSNIGRRSVNWYQQFPGTAPKLLIYSNDQRPSVVPDRFSGSKSGTSASLAISGLQSEDEAEYYCAAWDDSLKGAVFGGGTQLTVL
[1]
  EC50 (read off the curve): 0.02 µg/mL

B2: Fab fragment of mAb CR6261 (Fab, V domains shown)
VH: EVQLVESGAEVKKPGSSVKVSCKASGGPFRSYAISWVRQAPGQGPEWMGGIIPIFGTTKYAPKFQGRVTITADDFAGTVYMELSSLRSEDTAMYYCAKHMGYQVRETMDVWGKGTTVTVSS
VL: QSVLTQPPSVSAAPGQKVTISCSGSSSNIGNDYVSWYQQLPGTAPKLLIYDNNKRPSGIPDRFSGSKSGTSATLGITGLQTGDEANYYCATWDRRPTAYVVFGGGTKLTVLG
[2]
  MW polypeptide + Fab6261 (kDa): 204 kDa

B3: CR6261 (antibody, V domains shown)
VH: B2 VH
VL: B2 VL
[3]
  EC50: 0.417 nM
[4]
  Kd: 1.1 nM
[5]
  Kd: 0.48 nM
